Test results reported in article PMC6377630, “NapM enhances the survival of Mycobacterium tuberculosis under stress and in macrophages” (Communications Biology, 2019).

T1: DnaA (M. tuberculosis H37Ra, UniProt P9WNW3 1-507)
T1 construct: also called DnaA protein
T1 sequence: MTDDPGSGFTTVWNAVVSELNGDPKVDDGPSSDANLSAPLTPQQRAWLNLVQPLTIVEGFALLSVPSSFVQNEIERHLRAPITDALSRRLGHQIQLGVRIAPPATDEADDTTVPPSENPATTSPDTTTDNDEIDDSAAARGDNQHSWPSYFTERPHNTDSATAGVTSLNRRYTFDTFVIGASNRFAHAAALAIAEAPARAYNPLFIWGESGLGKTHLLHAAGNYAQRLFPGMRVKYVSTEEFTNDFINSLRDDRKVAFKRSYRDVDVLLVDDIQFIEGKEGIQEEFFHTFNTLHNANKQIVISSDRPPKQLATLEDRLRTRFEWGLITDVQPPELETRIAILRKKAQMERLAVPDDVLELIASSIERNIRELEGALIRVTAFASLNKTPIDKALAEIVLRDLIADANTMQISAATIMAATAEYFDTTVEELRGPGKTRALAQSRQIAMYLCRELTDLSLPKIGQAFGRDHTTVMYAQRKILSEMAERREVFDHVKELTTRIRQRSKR

B1: NapM (Rv0047c), nucleoid-associated protein (natural protein)
chain: MLELAILGLLIESPMHGYELRKRLTGLLGAFRAFSYGSLYPALRRMQADGLIAENAAPAGTPVRRARRVYQLTDKGRRRFGELVADTGPHNYTDDGFGVHLAFFNRTPAEARMRILEGRRRQVEERREGLREAVARASSSFDRYTRQLHQLGLESSEREVKWLNELIAAERAAPNPAEQT

Experiments:
[1] = target: DnaA (M. tuberculosis H37Ra) (UniProt P9WNW3); assay: SPR; DnaA immobilised on CM5 chip (5.7 μM), NapM proteins passed over; Biacore 3000; 10 mM HEPES, 150 mM NaCl, 3 mM EDTA, 0.01% surfactant P20, pH 7.4; 25 °C
[2] = target: T1, DnaA; assay: as above; settings: both partners purified

| Molecule | Kd [1] [nM] | Kd [2] [nM] |
| --- | --- | --- |
| NapM C-terminal domain (CTD) (domain or fragment) | 500 |  |
| B1 |  | 380 |
